Data set [1] addresses Oct-1 POU domain (POU-specific domain and homeodomain) (UniProt P14859 P14859:280-438). Kind of data set: EMSA; 10 mM Hepes pH 7.9, 50 mM KCl, 0.5 mM EDTA, 30 C; apparent Kd. For orientation: Mobility shift assays separate free from complexed probe on a gel.
Data set [2] has as its target T1, Zif268 zinc fingers 1-3 (UniProt P08046 P08046:336-416). The description is as above.
The target of data set [3] is T1, Zif268 zinc fingers 1-3. Kind of data set: EMSA.
Data set [4] concerns the target GST-ZFHD1 (Zif268 fingers 1-2, GGRR linker, Oct-1 homeodomain) (synthetic chimera (mouse Zif268 / human …, UniProt P08046;P14859 P08046:333-390,P14859:378-439)). Kind of data set: EMSA; 10 mM Hepes pH 7.9, 50 mM KCl, 0.5 mM EDTA, 30 C; apparent Kd. The note with it: tags: N-terminal GST (pGEX2T).

Chain of Oct-1 POU domain (POU-specific domain and homeodomain) (P14859 280-438, one chain of several): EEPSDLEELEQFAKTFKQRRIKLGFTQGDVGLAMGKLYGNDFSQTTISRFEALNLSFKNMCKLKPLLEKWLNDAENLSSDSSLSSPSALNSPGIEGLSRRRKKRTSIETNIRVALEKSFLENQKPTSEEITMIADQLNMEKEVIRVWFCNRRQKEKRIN

B1: Oct-1 octamer site probe (dsDNA)
DNA 1: CCTCGAGGTCATTTGCATACTAGGTACC
DNA 2: GGTACCTAGTATGCAAATGACCTCGAGG
In the case of B1, the Kd in data set [1] was 0.18 nM.

B2: Zif268 site probe (dsDNA)
DNA 1: CCTCGAGGCGCCCACGCCTAGGTACC
DNA 2: GGTACCTAGGCGTGGGCGCCTCGAGG
For the molecule B2, the Kd with Zif268 zinc fingers 1-3 [2] was 0.33 nM.

B3: hybrid site probe TCATTATGGGCG (dsDNA)
DNA 1: CCTCGAGGTCATTATGGGCGCTAGGTACC
DNA 2: GGTACCTAGCGCCCATAATGACCTCGAGG
Regarding B3, the binding result in the data set with Zif268 zinc fingers 1-3 [3] is given as “no binding”.

B4: hybrid site probe TAATGATGGGCG (dsDNA)
DNA 1: CCTCGAGGCGCCCATCATTACTAGGTACC
DNA 2: GGTACCTAGTAATGATGGGCGCCTCGAGG
As for B4, the Kd in data set [4] is 0.84 nM.

These data come from patent publication US7008780, “Chimeric DNA-binding proteins” (Massachusetts Institute of Technology).
